Like-named read-outs stand apart in the source and are kept apart here.

For assay [1], the target named is No hACE2.
Assay [2] has as its target No hACE2. The source holds these as a separate data set.
Assay [3] concerns the target No hACE2. The source holds these as a separate data set.

“receptor binding domain (RBD) of wildtype SARS-CoV-2 spike (residues 319-541) (from UniProt P0DTC2 319-541) (ligand)” had a % of cells in the PE-positive (RBD-bound) gate with No hACE2 [1] of 0.17%.
Take “receptor binding domain (RBD) of SARS-CoV spike (residues 306-527) (from UniProt P59594 306-527) (ligand)”: in the assay with No hACE2 [2], the % of cells in the PE-positive (RBD-bound) gate worked out at 0.24%.
“receptor binding domain (RBD) of HCoV-NL63 spike (residues 481-616) (from UniProt Q6Q1S2 481-616) (ligand)”: the % of cells in the PE-positive (RBD-bound) gate with No hACE2 [3] was 0.37%.
